The target of the experiment is T1, Rh5 (UniProt Q8IFM5 25-526).
T1 sequence: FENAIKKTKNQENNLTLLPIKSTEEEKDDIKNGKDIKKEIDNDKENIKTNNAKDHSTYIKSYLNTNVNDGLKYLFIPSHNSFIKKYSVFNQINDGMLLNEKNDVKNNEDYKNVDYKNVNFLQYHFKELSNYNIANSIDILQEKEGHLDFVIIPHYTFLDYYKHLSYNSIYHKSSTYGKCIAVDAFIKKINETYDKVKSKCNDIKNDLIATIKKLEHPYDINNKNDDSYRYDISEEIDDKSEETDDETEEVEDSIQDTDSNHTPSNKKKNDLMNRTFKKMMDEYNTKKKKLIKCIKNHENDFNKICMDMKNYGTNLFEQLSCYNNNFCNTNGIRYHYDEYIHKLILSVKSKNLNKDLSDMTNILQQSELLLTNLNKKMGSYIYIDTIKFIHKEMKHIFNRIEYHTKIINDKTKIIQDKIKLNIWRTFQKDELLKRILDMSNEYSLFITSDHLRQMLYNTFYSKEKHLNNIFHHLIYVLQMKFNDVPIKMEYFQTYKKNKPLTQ
The experiment in a line: BSI, free solution, label-free.

B1: Basigin (receptor)
chain: AAGTVFTTVEDLGSKILLTCSLNDSATEVTGHRWLKGGVVLKEDALPGQKTEFKVDSDDQWGEYSCVFLPEPMGTANIQLHGPPRVKAVKSSEHINEGETAMLVCKSESVPPVTDWAWYKITDSEDKALMNGSESRFFVSSSQGRSELHIENLNMEADPGQYRCNGTSSKGSDQAIITLRVRSH
notes: If it applies, basigin was whole, on human erythrocytes
The Kd is the free concentration of one partner at which half of the binding sites on the other are occupied at equilibrium, for simple one-to-one binding. High values mean lower affinity, low ones higher affinity. For B1, the Kd was found to be 1080 nM.

The record behind these values is patent publication US20200209227A1 (published 2020).
